1 molecule from paper doi:10.1101/758797 (bioRxiv, 2019) can be followed below.

This test has as its target VPS15 (human, UniProt Q99570 1-1358). The test is described as follows: cryo-EM structure.

VPS15, sequence (Q99570 whole entry): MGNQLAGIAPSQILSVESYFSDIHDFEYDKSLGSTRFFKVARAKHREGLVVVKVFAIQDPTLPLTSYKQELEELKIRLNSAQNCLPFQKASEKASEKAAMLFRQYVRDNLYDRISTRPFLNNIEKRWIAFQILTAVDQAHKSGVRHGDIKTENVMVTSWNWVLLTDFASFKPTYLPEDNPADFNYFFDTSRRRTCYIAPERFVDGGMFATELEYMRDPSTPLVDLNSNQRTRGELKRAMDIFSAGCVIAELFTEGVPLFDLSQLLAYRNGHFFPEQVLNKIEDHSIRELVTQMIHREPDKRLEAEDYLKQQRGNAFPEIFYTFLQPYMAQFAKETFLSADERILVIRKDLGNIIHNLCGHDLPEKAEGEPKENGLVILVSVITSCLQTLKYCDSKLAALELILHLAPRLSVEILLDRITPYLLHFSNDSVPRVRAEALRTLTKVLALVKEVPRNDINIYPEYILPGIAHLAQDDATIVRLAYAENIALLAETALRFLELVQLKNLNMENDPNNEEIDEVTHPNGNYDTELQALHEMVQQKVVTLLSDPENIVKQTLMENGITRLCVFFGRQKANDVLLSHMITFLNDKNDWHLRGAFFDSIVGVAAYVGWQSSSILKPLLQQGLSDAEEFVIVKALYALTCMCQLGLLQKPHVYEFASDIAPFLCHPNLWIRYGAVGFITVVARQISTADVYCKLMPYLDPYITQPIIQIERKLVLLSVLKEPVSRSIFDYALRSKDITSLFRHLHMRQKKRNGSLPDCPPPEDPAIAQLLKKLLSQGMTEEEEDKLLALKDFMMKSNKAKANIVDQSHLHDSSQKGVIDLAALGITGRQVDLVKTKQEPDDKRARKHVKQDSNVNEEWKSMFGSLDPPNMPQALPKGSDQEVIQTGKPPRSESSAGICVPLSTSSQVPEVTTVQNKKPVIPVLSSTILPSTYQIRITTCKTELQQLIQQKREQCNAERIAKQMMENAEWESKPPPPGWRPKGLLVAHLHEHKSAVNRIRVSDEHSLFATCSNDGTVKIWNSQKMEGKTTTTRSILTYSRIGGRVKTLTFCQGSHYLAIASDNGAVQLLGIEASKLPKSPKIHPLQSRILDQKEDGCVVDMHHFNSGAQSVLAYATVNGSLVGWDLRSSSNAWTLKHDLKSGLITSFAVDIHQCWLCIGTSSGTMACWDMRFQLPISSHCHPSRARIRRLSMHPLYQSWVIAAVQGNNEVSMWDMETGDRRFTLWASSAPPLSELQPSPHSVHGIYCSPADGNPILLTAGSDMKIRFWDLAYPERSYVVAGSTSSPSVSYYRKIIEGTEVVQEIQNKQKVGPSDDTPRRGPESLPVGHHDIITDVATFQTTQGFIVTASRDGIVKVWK

B1: NRBF2^MIT as fused in MIT-Fusion (NRBF2 residues 1-159, S113A, S120A) (domain or fragment)
chain: MEVMEGPLNLAHQQSRRADRLLAAGKYEEAISCHKKAAAYLSEAMKLTQSEQAHLSLELQRDSHMKQLLLIQERWKRAQREERLKAQQNTDKDAAAHLQTSHKPSAEDAEGQAPLSQKYAPSTEKCLPEIQGIFDRDPDTLLYLLQQKSEPAEPCIGSK
As to B1, the binding result is on record as “binds”.
